From paper PMC9995077 (Science Advances, 2023)

What was measured:
[1] = target: Ino80-FLAG (endogenously expressed FLAG-tagged Ino80) (S. cerevisiae (endogenous in yeast …, UniProt P53115 1-1489)); test: co-IP
Ino80-K929R-FLAG = Ino80-K929R-FLAG (S. cerevisiae, UniProt P53115 1-1489, K929R); test: co-IP
Sequence of Ino80-K929R-FLAG (P53115 whole entry K929R): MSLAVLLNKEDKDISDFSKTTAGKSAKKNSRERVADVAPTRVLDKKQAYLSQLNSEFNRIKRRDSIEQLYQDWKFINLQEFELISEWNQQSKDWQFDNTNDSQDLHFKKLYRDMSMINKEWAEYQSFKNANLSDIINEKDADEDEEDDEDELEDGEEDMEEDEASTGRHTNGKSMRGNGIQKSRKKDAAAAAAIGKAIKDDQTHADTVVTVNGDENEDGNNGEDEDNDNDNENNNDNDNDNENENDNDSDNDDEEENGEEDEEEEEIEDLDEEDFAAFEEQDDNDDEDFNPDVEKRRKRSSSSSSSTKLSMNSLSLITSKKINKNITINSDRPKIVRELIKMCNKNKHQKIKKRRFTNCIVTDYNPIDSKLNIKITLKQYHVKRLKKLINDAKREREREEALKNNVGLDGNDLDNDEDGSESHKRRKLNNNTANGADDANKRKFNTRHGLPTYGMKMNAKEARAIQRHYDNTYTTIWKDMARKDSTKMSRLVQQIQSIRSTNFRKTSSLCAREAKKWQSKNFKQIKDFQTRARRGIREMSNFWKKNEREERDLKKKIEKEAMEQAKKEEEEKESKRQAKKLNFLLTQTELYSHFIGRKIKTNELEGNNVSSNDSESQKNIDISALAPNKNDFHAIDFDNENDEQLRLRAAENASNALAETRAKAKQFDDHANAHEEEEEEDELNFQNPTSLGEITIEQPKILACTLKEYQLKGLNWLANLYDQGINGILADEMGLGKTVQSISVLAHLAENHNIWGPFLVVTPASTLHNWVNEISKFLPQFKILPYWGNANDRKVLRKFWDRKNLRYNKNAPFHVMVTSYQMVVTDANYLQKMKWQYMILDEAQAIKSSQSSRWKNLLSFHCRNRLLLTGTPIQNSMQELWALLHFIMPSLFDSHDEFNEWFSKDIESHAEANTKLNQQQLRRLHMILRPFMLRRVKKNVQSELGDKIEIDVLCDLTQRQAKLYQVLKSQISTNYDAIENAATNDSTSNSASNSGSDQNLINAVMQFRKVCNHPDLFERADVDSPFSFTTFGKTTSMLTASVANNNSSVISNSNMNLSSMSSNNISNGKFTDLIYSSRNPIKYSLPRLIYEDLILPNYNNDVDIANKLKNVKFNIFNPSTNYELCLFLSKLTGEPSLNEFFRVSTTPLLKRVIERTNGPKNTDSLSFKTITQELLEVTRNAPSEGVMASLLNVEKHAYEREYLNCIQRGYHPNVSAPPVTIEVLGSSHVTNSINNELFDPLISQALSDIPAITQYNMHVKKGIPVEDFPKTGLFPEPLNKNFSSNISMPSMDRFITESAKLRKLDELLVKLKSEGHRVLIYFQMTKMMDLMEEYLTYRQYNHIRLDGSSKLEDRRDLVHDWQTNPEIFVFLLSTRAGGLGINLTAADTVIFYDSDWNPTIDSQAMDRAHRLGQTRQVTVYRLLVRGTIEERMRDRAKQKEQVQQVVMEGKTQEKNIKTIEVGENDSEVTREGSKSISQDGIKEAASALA

Sequence of Ino80-FLAG (endogenously expressed FLAG-tagged Ino80) (S. cerevisiae (P53115 whole entry): as the sequence (P53115 whole entry K929R) above, with R929K counted along it

B1: Atg11-CBP (tandem affinity-purified Atg11) (natural protein)
chain: MADADEYSTAPTQQEITPLQTTATIINAISGECITTNVDFFVSLDKFKQFIARKWKIPPDQLLILLPYGNKLKPSMFKELLINRSFTLNDFYVYDRRLFSLVSKPTPTNLLTSKDSNPMNSPNSNDLTETLEYLIKNSHISQYQGSDTIMIKPMPSPLEDADVDLSRLNYHSVTSLLTTNLGWLSALEIDVHYFKSLIPDIIAHIKRIFDGLTVCSQYLKLYCFDVESLYNSNVQFLNQLVDNGMTSKWEKCFNDTLSKLTALEGDSLQKFINIESLLENEKSVKILNHSINGKLNKIKREIDENASFRDIITVNIDRLRQMFTPNESKFELEDQMAESFEVLVSEMRTRSRNVLDKEEEEFNSQEFLKSMNVMLEKDKKESVKTLFTISQALYSQIGELIDLKKSLQKHAVAILGNIAFTQMEILGIKRLLLNECNKDLELYKKYEVEFAQVEDLPLIYGLYLIEKYRRLSWFQQILSFISNFNQDLELFKQNELRTRNKWVKNFGSIATVFCEDLLSSSDFKRLNEYHSHTSPPNEDEEDENENSIANYRQDLVKVSQAIDNYMTQIKETDVSEPIIDLLSKTLFETKRFHIIYSNFKNNNNNSSNGNSISPEGSIALKSDDVVKGYKTRIKKLESLLHEFQYSDIGHWPQGVLNTHLKPFRGSATSINKKKFLGASVLLEPANISEVNIDSVSQANNHQIQELESNVDDLLHQLQLLKEENNRKSMQISEMGKKISDLEVEKTAYRETLTNLNQELARLTNEEQSHRTEIFTLNASFKKQLNDIISQDNEKIEKLTGDYDDVSKSRERLQMDLDESNKKHEQEVNLLKADIERLGKQIVTSEKSYAETNSSSMEKGEKFETIPLAEDPGRENQISAYTQTLQDRIFDIISTNIFILENIGLLLTFDNNNNIQIRRVKGLKKGTAQSNILDESTQMLDAHDNSLIKSPVFQKLKDEYELIKSVANGSEKDTQQSIFLGNITQLYDNKLYEVAVIRRFKDIETLAKKLTKENKIKRTLLERFQREKVTLRNFQIGDLALFLPTRENVNSVGSMSSSTSSLSSSFSSVDLSTPPPLDAMSIQSSPSVIHSNVINQASISGRDKNKLMRPWAAFTAFEESTRYFLKDEKGLTKGKEWFVGRIVTLEHFVADSPSNNPFRLPKGSVWFQVTAVVVSYQGV
- binding result [1]: binds
- binding result (Ino80-K929R-FLAG): binds
